Where two headings read alike, the source gives them in different places.
T1: human ABCG2 (UniProt Q9UNQ0 1-655)
T1 chain: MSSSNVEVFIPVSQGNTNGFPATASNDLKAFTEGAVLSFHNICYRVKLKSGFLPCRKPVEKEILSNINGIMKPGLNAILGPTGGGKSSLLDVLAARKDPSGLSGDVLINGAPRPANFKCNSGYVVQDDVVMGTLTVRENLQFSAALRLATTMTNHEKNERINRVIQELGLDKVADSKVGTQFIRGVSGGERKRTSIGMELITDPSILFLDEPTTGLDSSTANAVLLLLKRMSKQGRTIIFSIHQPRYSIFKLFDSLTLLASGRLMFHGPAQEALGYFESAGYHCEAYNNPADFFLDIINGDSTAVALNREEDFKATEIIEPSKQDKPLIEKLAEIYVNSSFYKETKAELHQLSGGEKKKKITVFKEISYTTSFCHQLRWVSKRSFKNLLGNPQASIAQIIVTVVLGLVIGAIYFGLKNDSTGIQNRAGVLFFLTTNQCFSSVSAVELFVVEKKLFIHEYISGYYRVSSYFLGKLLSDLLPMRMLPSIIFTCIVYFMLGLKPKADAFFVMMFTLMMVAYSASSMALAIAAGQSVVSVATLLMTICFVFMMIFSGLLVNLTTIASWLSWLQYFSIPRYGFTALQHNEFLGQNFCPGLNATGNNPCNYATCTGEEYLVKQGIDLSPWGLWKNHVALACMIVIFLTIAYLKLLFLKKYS


Assays:
[1] = target: T1, human ABCG2; assay: flow cytometry cell binding; 293T-G2OX cells
[2] = target: T1, human ABCG2; assay: flow cytometry cell binding; 293T-G2OX cells
[3] = target: human PD-L1 (human, UniProt Q9NZQ7 19-290); assay: flow cytometry cell binding; 293T-KT9OX cells
human PD-L1, sequence (Q9NZQ7 19-290): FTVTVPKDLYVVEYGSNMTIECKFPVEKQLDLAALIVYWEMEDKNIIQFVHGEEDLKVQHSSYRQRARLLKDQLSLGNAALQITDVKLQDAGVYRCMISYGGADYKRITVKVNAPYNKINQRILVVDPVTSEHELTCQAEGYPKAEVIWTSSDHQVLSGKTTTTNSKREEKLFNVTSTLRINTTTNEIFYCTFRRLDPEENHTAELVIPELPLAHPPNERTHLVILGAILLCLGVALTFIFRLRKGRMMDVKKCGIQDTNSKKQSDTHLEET

[4] = target: 293T-G2KT9OX; assay: flow cytometry cell binding; cells expressing both ABCG2 and PD-L1

Row | EC50 [1] | also measured | Binder
1 | 1.5 nM | – | anti-ABCG2 antibody 5D3 (antibody, V domains shown) VH: QVQLQESGPGLVKPSQSLSLTCTVTGFSITSDYAWNWIRQFPGKKLEWMGYINFDGGTTYNPSLRGRISITRDTSKNQFFLQLRSVTPEDTATYYCATFYGAKGTLDYWGQGTSVTVSS VL: DIVLTQSPSSFSVSLGDRVTISCKASGYILNRLAWYQQKPGNAPRLLISGATSLETGFPSRFSGTGSGKDYTLSISSLQTEDVGTYYCQQYWSTPWTFGGGTKLEIR
2 | – | EC50 [2]: 7.1 nM; EC50 [3]: 4.18 nM | 5D3hVH-v1DD KT9KK 5D3hVL-v1 (bispecific antibody, V domains shown) VH 1: EVQLQESGPGLVKPSETLSLTCTVSGFSITSDYAWNWIRQPPGKGLEWMGYINFDGGTTYNPSLRGRITISRDTSKNQFSLKLSSVTAADTAVYYCATFYGAKGTLDYWGQGTLVTVSS VH 2: not shown VL: DIQLTQSPSSLSASVGDRVTITCKASGYILNRLAWYQQKPGKAPKLLISGATSLETGFPSRFSGSGSGKDYTLTISSLQPEDFATYYCQQYWSTPWTFGGGTKLEIK
3 | – | EC50 [4]: 10.8 nM | 5D3hVHv1DD KT9KK 5D3hVKv1 (bispecific antibody, V domains shown) VH 1: EVQLQESGPGLVKPSETLSLTCTVSGFSITSDYAWNWIRQPPGKGLEWMGYINFDGGTTYNPSLRGRITISRDTSKNQFSLKLSSVTAADTAVYYCATFYGAKGTLDYWGQGTLVTVSS VH 2: not shown VL: DIQLTQSPSSLSASVGDRVTITCKASGYILNRLAWYQQKPGKAPKLLISGATSLETGFPSRFSGSGSGKDYTLTISSLQPEDFATYYCQQYWSTPWTFGGGTKLEIK
4 | 2.2 nM | – | 5D3hVHv2 5D3hVKv1 (antibody, V domains shown) VH: EVQLQESGPGLVKPSETLSLTCTVSGFSITSDYAWNWIRQPPGKGLEWIGYINFDGGTTYNPSLRGRVTISRDTSKNQFSLKLSSVTAADTAVYYCATFYGAKGTLDYWGQGTLVTVSS VL: DIQLTQSPSSLSASVGDRVTITCKASGYILNRLAWYQQKPGKAPKLLISGATSLETGFPSRFSGSGSGKDYTLTISSLQPEDFATYYCQQYWSTPWTFGGGTKLEIK
5 | 2.2 nM | – | 5D3hVHv1 5D3hVKv1 (antibody, V domains shown) VH: EVQLQESGPGLVKPSETLSLTCTVSGFSITSDYAWNWIRQPPGKGLEWMGYINFDGGTTYNPSLRGRITISRDTSKNQFSLKLSSVTAADTAVYYCATFYGAKGTLDYWGQGTLVTVSS VL: DIQLTQSPSSLSASVGDRVTITCKASGYILNRLAWYQQKPGKAPKLLISGATSLETGFPSRFSGSGSGKDYTLTISSLQPEDFATYYCQQYWSTPWTFGGGTKLEIK

— patent US20230192902A1 (published 2023)
